Source: US20240279357A1 (THERINI BIO, published 2024)
Changes are numbered by the printed parent chain.

T1: P2 peptide comprising SEQ ID NO: 31 (human fibrin γ377-395) (human)
T1 construct: Bought (CPC Scientific 920712); also called human P2 peptide
T1 peptide: YSMKKTTMKIIPFNRLTIG

B1: humanized VH5/Vκ2 antibody (antibody, IgG1, V domains shown)
VH: QVQLVQSGAEVKKPGSSVKVSCKASGYTFTSYWIHWVRQAPGQGLEWIGLIDPSDSYTNYNQKFRGRVTITRDTSTSTAYMELSSLRSEDTAVYYCASSDPTGCWGQGTTVTVSS
VL: DIVMTQAAFSNPVTPGTPASISCRSSKSLLHSSGITYLSWYLQKPGQSPQLLIYQMSNLASGVPDRFSSSGSGTDFTLKISRVEAEDVGVYYCAQNLELPLTFGQGTKLEIK
notes: IgG1; also called VH5/VK2; VH5Vk2
B2: humanized VH4/Vκ2 antibody (antibody, IgG1, V domains shown)
VH: B1 VH with R72V
VL: B1 VL
notes: IgG1; also called VH4/VK2; VH4Vk2
B3: humanized VH4/Vκ1 antibody (antibody, IgG1, V domains shown)
VH: B1 VH with R72V
VL: B1 VL with V13I, K79R
notes: Expressed as IgG1; also called VH4/VK1; VH4Vk1
B4: humanized VH6/Vκ2 antibody (antibody, IgG1, V domains shown)
VH: B1 VH with R65Q
VL: B1 VL
notes: Expressed as IgG1; also called VH6/VK2; VH6Vk2

Molecular target: T1, P2 peptide comprising SEQ ID NO: 31 …
Test: ELISA on coated P2 peptide
Method: The humanized antibodies affinity for fibrinogen, fibrin and P2 peptide were assessed by Enzyme-linked immunosorbent assays (ELISA)s (FIGS. 7-16). ELISAs for fibrinogen binding were performed using plasminogen-depleted human Fibrinogen (EMD/Calbiochem). […] IgG1-depleted Fibrinogen (FGN) in 20 mM HEPES/Saline buffer was added to each well of half of a 96-well Nunc Maxisorp™ ELISA plate. The ELISAs for fibrin binding were prepared by adding 50 mL of 20 mM HEPES/Saline buffer containing 14 mM CaCl₂, and 2 units thrombin to each well of the second half of the Nunc Maxisorp™ ELISA plate. 50 mL of 20 mg fibrinogen in 20 mM HEPES/Saline buffer were then added to a total volume of 100 mL. Plates were placed in a 37° C. incubator for 1 hour to allow fibrinogen to clot into fibrin and subsequently placed overnight into a plate dryer at 37° C. overnight. The ELISAs for P2 peptide were prepared by addition of […] of 30 mM P2 peptide in 20 mM HEPES/Saline buffer to each well of a 96-well Nunc Maxisorp™ ELISA plate. Plates were transferred to the plate dryer and dried overnight at 37° C. All ELISAs were preformed using Nunc MaxiSorp 96-well ELISA plates. Blocking was performed using 100 mL 5% BSA in DPBS are incubated at RT for 1 hour. Plates were washed 5× in DPBS containing 0.05% Tween-20 (EL406 was used for the addition of wash buffer only). 50 mL of primary antibodies was diluted in 0.5% BSA in DPBS, and the primary antibodies were added to the plates and incubated for 2 hours at 37° C. Plates were washed 5× in DPBS/Tween. 100 mL secondary antibodies were diluted in 0.5% BSA in DPBS. The secondary antibodies were then added to the plates and incubated for 1 hour at RT. Afterwards, plates were washed 5× in DPBS/Tween. 100 mL of TMB/E substrate solution was added, and the reaction was stopped after 5 minutes with 1N HCl.

| EC50 [nM] | Binder |
| --- | --- |
| ~78.1 | B1 |
| ~85.1 | B2 |
| ~81.3 | B3 |
| ~110 | B4 |

Molecular target: T1, P2 peptide comprising SEQ ID NO: 31 …
Test: SPR (Biacore) single cycle, steady state fit; IgG from HEK supernatant captured, P2 peptide analyte
Method: FIG. 18 illustrates the procedure used for the single cycle kinetics analysis. The Biacore T200 […] instrument was used for single cycle kinetics analysis with the control software v2.0.1, and evaluation software V3.0. The anti-human capture chip was used with a running buffer consisting of HBS-P+ buffer (pH 7.4) containing 0.1% BSA at 25° C. a flow rate of 30 μl/min. Neat HEK supernatants were used as ligand and loaded to ˜1674 RU at 10 μl/min. P2 peptide comprising SEQ ID NO: 31 (CPC Scientific 920712, Lot #CS-02-00350) was the analyte for the analysis. […] Regeneration was performed with MgCl₂. Antibodies were diluted in running buffer to a final concentration of 20 μg/ml, based on concentrations assessed by Octet titre. At the start of each cycle, antibodies were loaded onto Fc2, Fc3 and Fc4 of the anti-human capture chip (GE Healthcare, Little Chalfont, UK). IgGs were captured at a flow rate of 10 μl/min to give an immobilization level (RL) of ˜ 1674 RU, the theoretical value to obtain an RMax of ˜50 RU. The surface was then allowed to stabilize. Single cycle kinetic data was obtained with P2 peptide as the analyte at a flow rate of 30 μl/min to minimize any potential mass transport limitations. […] The signal from the reference channel Fc1 (no antibody) was subtracted from that of Fc2, Fc3 and Fc4 to correct for differences in non-specific binding to a reference surface. […] The association phase for the five injections of increasing concentrations of P2 peptide was monitored for 20 seconds each time and a single dissociation phase was measured for 25 seconds following the last injection analyte. Regeneration of the anti-human capture surface was conducted using one injection of 3.8 M magnesium chloride.

| Kd [µM] | Relative KD [fold against VH0/VK0] | Binder |
| --- | --- | --- |
| 130 | 1.47 | B1 |
| 84.5 | 0.8 | B2 |
| 105 | 1.18 | B3 |
| 124 | 1.4 | B4 |

Molecular target: T1, P2 peptide comprising SEQ ID NO: 31 …
Test: SPR (Biacore) single cycle, steady state affinity; IgG from HEK supernatant captured, γ377-395 peptide analyte

| Kd [µM] | Relative KD | Binder |
| --- | --- | --- |
| 79 | 1 fold against VH5/VK2 | B1 |
| 47 | 1 fold against VH4/VK2 | B2 |
